These results are taken from patent US20110076347A1 (BEN GURION UNIVERSITY OF THE NEGEV RESEARCH AND DEVELOPMENT …, published 2011).

T1: human recombinant calbindin D28k (human, UniProt P05937 1-261, limits assumed)
T1 sequence (looked up): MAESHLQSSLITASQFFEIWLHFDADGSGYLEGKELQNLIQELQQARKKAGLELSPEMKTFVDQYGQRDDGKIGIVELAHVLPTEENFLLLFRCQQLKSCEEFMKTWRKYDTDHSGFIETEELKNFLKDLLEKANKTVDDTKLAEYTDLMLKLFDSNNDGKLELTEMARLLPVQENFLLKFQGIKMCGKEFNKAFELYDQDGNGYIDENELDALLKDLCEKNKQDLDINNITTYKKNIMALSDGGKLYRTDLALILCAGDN

The target in the first experiment is human brain inositol monophosphatase (IMPase), in postmortem crude homogenate (human) (UniProt P29218). Nature of the experiment: cell-based or functional assay.
Sequence of human brain inositol monophosphatase (IMPase), in postmortem crude homogenate (human) (P29218 whole entry): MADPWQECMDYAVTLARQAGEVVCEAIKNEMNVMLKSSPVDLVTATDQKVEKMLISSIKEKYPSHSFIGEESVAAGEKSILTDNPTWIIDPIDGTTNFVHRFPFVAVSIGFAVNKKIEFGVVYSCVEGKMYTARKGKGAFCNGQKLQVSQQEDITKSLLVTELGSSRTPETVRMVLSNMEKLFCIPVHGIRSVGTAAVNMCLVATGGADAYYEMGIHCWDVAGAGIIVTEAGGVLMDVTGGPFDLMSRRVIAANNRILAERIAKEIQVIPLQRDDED
The molecule “human recombinant calbindin D28k (from UniProt P05937 1-261)” had a human brain IMPase activity of 3 fold.

The target of another experiment is T1, human recombinant calbindin D28k. As to the kind of experiment: cell-based or functional assay.
As for KEK [Peptide 10 (Lys-Glu-Lys)], the “% Inhibition of Calbindin Activation” value stood at 0%.

As for IAEAYP [Peptide 6 (Ile-Ala-Glu-Ala-Tyr-Pro)], the “% Inhibition of Calbindin Activation” value amounted to 0%.

With SYEHYP [Peptide 5 (Ser-Tyr-Glu-His-Lys-Pro)], the “% Inhibition of Calbindin Activation” value was 56%.

For KHIKPS [Peptide 7 (Lys-His-Ile-Lys-Pro-Ser)], the “% Inhibition of Calbindin Activation” value was found to be 56%.

As to IAAAYP [Peptide 8 (Ile-Ala-Ala-Ala-Tyr-Pro)], the “% Inhibition of Calbindin Activation” value came to 0%.

As to IKEKY [Peptide 9 (Ile-Lys-Glu-Lys-Tyr)], the “% Inhibition of Calbindin Activation” value came out at 0%.

Turning to IKEKYP [Peptide 1 (Ile-Lys-Glu-Lys-Tyr-Pro)], the “% Inhibition of Calbindin Activation” value was 78%.

For IKEAYP [Peptide 3 (Ile-Lys-Glu-Ala-Tyr-Pro)], the “% Inhibition of Calbindin Activation” value came out at 100%.

Regarding IKAKYP [Peptide 2 (Ile-Lys-Ala-Lys-Tyr-Pro)], the “% Inhibition of Calbindin Activation” value was determined as 100%.

With IAEKYP [Peptide 4 (Ile-Ala-Glu-Lys-Tyr-Pro)], the “% Inhibition of Calbindin Activation” value was 89%.
